Measurements taken from patent US20200361992A1 (PROTAGONIST THERAPEUTICS, published 2020).
Positions of bridges follow the written chain, without caps; N, C: chain ends. Non-standard residues stand in square brackets, D forms with d. Groups on a side chain read outwards from the residue. *: point of attachment. PEG12 = NCCOCCOCCOCCOCCOCCOCCOCCOCCOCCOCCOCCOCCC(=O)O; Phe(4-tBu) = CC(C)(C)c1ccc(C[C@H](N)C(=O)O)cc1; Dip = N[C@H](C(=O)O)C(c1ccccc1)c1ccccc1; Palmitoyl = CCCCCCCCCCCCCCCC(=O)*; β3hF = N[C@H](CC(=O)O)Cc1ccccc1; Isovaleryl = CC(C)CC(=O)*; dDap = NC[C@@H](N)C(=O)O; Dap = NC[C@H](N)C(=O)O; Npc = nipecotic acid

B1: Compd ID 156 (peptide)
peptide: DTHXPCIKXKKC
modifications: Isovaleric acid-DTH-[Dpa]-PCI-[(D)Lys]-[b-hPhe]-[Lys(Peg11-Lauryl)]-[(D)Lys]-C-NH2
B2: Compd ID 155 (peptide)
peptide: DTHXPCIKXKKC
modifications: Isovaleric acid-DTH-[Dpa]-PCI-[(D)Lys]-[b-hPhe]-[Lys(Peg11-Octane)]-[(D)Lys]-C-NH2
B3: Compd ID 151 (peptide)
peptide: DTHXPCIKXKXX
modifications: Isovaleric acid-DTH-[Dpa]-PCI-[(D)Lys]-[b-hPhe]-[Lys(Ahx-Palm)]-[Dap]-[N-Me-Cys]-NH2
B4: Compd ID 153 (peptide)
peptide: DTHXPCIKXKKC
modifications: Isovaleric acid-DTH-[Dpa]-PCI-[(D)Lys-Peg11*]-[b-hPhe]-[Lys(Peg11-Palm)]-[(D)Lys-Peg11*]-C-NH2 (*PEG11-OMe)
B5: Compd ID 166 (peptide)
peptide: DTHXPCIKXKKC
modifications: Isovaleric acid-DTH-[Dpa]-PCI-[(D)Lys-Peg11*]-[b-hPhe]-[Lys(Ahx-Palm)]-[(D)Lys-Peg11*]-C-NH2 (*PEG11-OMe)
B6: Compd ID 158 (peptide)
peptide: DTHXPCIKXKKC
modifications: Isovaleric acid-DTH-[Dpa]-PCI-[(D)Lys]-[b-hPhe]-[Lys(IsoGlu-Palm)]-[(D)Lys]-C-NH2
B7: Compd ID 157 (peptide)
peptide: DTHXPCIKXKKC
modifications: Isovaleric acid-DTH-[Dpa]-PCI-[(D)Lys]-[b-hPhe]-[Lys-Peg11*]-[(D)Lys]-C-NH2 (*PEG11-OMe)
B8: Compd ID 159 (peptide)
peptide: DTHXPCIKXKKC
modifications: Isovaleric acid-DTH-[Dpa]-PCI-[(D)Lys-Ac]-[b-hPhe]-[Lys(Peg11-Palm)]-[(D)Lys-Ac]-C-NH2

The binders below were run against T1, human ferroportin (SLC40A1) fused with GFP, stably expressed in HEK293 cells (human, UniProt Q9NP59 1-571) (assay: cell-based or functional assay).
T1 sequence (looked up): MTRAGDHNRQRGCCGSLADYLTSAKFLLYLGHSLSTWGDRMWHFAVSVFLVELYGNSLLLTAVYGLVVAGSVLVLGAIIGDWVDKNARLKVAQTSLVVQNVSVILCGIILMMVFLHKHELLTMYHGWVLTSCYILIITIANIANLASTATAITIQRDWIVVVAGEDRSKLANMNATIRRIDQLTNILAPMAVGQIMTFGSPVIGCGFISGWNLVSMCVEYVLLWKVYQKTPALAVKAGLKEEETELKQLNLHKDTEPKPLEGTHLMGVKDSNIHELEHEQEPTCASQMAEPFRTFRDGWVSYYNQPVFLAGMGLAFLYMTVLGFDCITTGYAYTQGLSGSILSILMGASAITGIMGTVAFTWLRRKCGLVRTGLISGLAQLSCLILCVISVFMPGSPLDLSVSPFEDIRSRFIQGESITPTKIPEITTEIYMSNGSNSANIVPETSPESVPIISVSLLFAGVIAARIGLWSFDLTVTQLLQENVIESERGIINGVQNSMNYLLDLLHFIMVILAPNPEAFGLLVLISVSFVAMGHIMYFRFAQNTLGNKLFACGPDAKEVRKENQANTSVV

| Binder | FPN IC50 [nM] |
| --- | --- |
| B1 | 125 |
| DTHXPCIKXKKC (Isovaleric acid-DTH-[Dpa]-PCI-[(D)Lys]-[b-hPhe]-[Lys(Ahx-Palm)]-[(D)Lys]-C-NH2) [Compd ID 165] | 6 |
| B2 | 279 |
| Isovaleryl-DTH[Dip][Npc]CI[dK][Phe(4-tBu)]K([PEG12-Palmitoyl])[dK]C-NH2 (disulfide 6-12 (inferred)) [Compd ID 149] | 17 |
| Isovaleryl-DTH[Dip]PCI[dK][β3hF][Dap]([dDap-Palmitoyl])C-NH2 (disulfide 6-11 (inferred)) [Compd ID 163] | 7 |
| B3 | 28.5 |
| DTHFPCIXFKC (Isovaleric acid-DTHFPCI-[Orn]-[Phe]-Lys[PEG11-Palm]-C-NH2) [Compd ID 11] | 4 |
| B4 | 19 |
| B5 | 6 |
| DTHXPCIKXKC (Isovaleric acid-DTH-[Dpa]-PCI-[(D)Lys]-[b-hPhe]-[Lys(dDap-Palm)]-C-NH2) [Compd ID 161] | 10 |
| Isovaleryl-DTH[Dip]PCI[dK][β3hF][Dap]([Dap-Palmitoyl])C-NH2 (disulfide 6-11 (inferred)) [Compd ID 162] | 8 |
| Isovaleryl-DTH[Dip][Npc]CI[dK][Phe(4-tBu)]K([PEG12-Palmitoyl])C[dK]-NH2 (disulfide 6-11 (inferred)) [Compd ID 150] | 22 |
| B6 | 6 |
| B7 | 347 |
| DTHXPCIKXKC (Isovaleric acid-DTH-[Dpa]-PCI-[(D)Lys]-[b-hPhe]-[Lys(Dap-Palm)]-C-NH2) [Compd ID 160] | 4 |
| B8 | 4 |
| DTHXPCIKXKKC (Isovaleric acid-DTH-[Dpa]-PCI-[(D)Lys]-[b-hPhe]-[Lys(Ac)]-[(D)Lys]-C-NH2) [Compd ID 152] | 146 |
| Isovaleryl-DTH[Dip]PCI[dA][β3hF]K([PEG12-Palmitoyl])[dK]C-NH2 (disulfide 6-12 (inferred)) [Compd ID 146] | 11 |
| Isovaleryl-DTH[Dip]PCI[dK][β3hF][Dap]([dDap-Palmitoyl])C-NH2 (disulfide 6-11 (inferred)) [Compd ID 164] | 6 |
| Isovaleryl-DTH[Dip]PCII[β3hF]K([PEG12-Palmitoyl])[dK]C-NH2 (disulfide 6-12 (inferred)) [Compd ID 147] | 24 |
| Isovaleryl-DTH[Dip]PCI[β3hF]K([PEG12-Palmitoyl])[dK]C-NH2 (disulfide 6-11 (inferred)) [Compd ID 148] | 12 |
| DTHFPCIKFKPRSKGCK (Isovaleric acid-DTHFPCIKF-Lys[PEG11-Palm]-PRSKGCK-NH2) [Ref. Compd 1] | 30 |
| DTHXPCIKXKKC (Isovaleric acid-DTH-[Dpa]-PCI-[(D)Lys]-[b-hPhe]-[Lys-Peg11]-[(D)Lys]-C-NH2) [Compd ID 154] | 404 |
